One block for each binder: values may come before it. Numbered stars: 1 amine (or outer) side, 2 acyl side, 3 side chain; on linkers, the order of the positions; unused ones are H or OH. * marks the point of attachment. C20 diacid = O=C(O)CCCCCCCCCCCCCCCCCCC(=O)*; C18 diacid = O=C(O)CCCCCCCCCCCCCCCCC(=O)*; γGlu = O=C(O)[C@H](CCC(=O)[*:2])N[*:1]
What was measured:
[1] = target: T1, human calcitonin receptor (human, UniProt P30988 25-474); experiment: cell-based or functional assay
T1 sequence (looked up): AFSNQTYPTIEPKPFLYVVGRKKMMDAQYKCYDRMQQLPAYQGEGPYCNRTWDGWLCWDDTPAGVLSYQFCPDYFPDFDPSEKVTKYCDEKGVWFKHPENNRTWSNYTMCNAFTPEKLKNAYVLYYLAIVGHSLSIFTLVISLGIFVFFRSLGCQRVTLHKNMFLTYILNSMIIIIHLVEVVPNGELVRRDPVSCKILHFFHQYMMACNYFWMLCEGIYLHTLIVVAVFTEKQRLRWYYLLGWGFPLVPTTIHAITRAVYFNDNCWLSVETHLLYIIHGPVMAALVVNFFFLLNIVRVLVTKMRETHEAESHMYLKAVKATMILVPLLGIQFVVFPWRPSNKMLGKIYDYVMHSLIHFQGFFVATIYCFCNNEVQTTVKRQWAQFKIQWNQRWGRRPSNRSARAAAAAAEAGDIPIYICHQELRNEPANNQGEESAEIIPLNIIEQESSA

[2] = target: T2, human amylin 3(a) receptor (human calcitonin receptor co-expressed with RAMP-3) (human, UniProt P30988 25-474; O60896 24-148, limits assumed); experiment: cell-based or functional assay
T2 sequence (looked up) 1: T1 sequence (looked up)
T2 sequence (looked up) 2: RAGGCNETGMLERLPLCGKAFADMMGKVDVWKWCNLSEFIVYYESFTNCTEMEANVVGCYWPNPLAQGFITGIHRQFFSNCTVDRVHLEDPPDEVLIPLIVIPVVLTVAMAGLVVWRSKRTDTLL

hCTR funct. EC50 (pM) [1]: 23 pM | hAmylin-R funct. EC50 (pM) [2]: 43 pM
B1: [N-terminal(C20 diacid-gGlu), 4G, 15Q, 21Q, 23Y, 30S, 31G, 32T, 33Y]mimylin (peptide)
peptide: {C20 diacid-γGlu}-EASGLSTAALGRLSQELHELQTYPRTETGSGTY-NH2
SMILES: CC(C)C[C@H](NC(=O)CNC(=O)[C@H](CO)NC(=O)[C@H](C)NC(=O)[C@H](CCC(=O)O)NC(=O)CC[C@H](NC(=O)CCCCCCCCCCCCCCCCCCC(=O)O)C(=O)O)C(=O)N[C@@H](CO)C(=O)N[C@H](C(=O)N[C@@H](C)C(=O)N[C@@H](C)C(=O)N[C@@H](CC(C)C)C(=O)NCC(=O)N[C@@H](CCCNC(=N)N)C(=O)N[C@@H](CC(C)C)C(=O)N[C@@H](CO)C(=O)N[C@@H](CCC(N)=O)C(=O)N[C@@H](CCC(=O)O)C(=O)N[C@@H](CC(C)C)C(=O)N[C@@H](Cc1c[nH]cn1)C(=O)N[C@@H](CCC(=O)O)C(=O)N[C@@H](CC(C)C)C(=O)N[C@@H](CCC(N)=O)C(=O)N[C@H](C(=O)N[C@@H](Cc1ccc(O)cc1)C(=O)N1CCC[C@H]1C(=O)N[C@@H](CCCNC(=N)N)C(=O)N[C@H](C(=O)N[C@@H](CCC(=O)O)C(=O)N[C@H](C(=O)NCC(=O)N[C@@H](CO)C(=O)NCC(=O)N[C@H](C(=O)N[C@@H](Cc1ccc(O)cc1)C(N)=O)[C@@H](C)O)[C@@H](C)O)[C@@H](C)O)[C@@H](C)O)[C@@H](C)O

hCTR funct. EC50 (pM) [1]: 23 pM | hAmylin-R funct. EC50 (pM) [2]: 20 pM
B2: [N-terminal(C20 diacid-gGlu), des1, 9T, 21S, 23Y, 30S, 31G, 33Y]mimylin (peptide)
peptide: {C20 diacid-γGlu}-ASELSTATLGRLSAELHELSTYPRTETGSGSY-NH2
SMILES: CC(C)C[C@H](NC(=O)[C@H](CCCNC(=N)N)NC(=O)CNC(=O)[C@H](CC(C)C)NC(=O)[C@@H](NC(=O)[C@H](C)NC(=O)[C@@H](NC(=O)[C@H](CO)NC(=O)[C@H](CC(C)C)NC(=O)[C@H](CCC(=O)O)NC(=O)[C@H](CO)NC(=O)[C@H](C)NC(=O)CC[C@H](NC(=O)CCCCCCCCCCCCCCCCCCC(=O)O)C(=O)O)[C@@H](C)O)[C@@H](C)O)C(=O)N[C@@H](CO)C(=O)N[C@@H](C)C(=O)N[C@@H](CCC(=O)O)C(=O)N[C@@H](CC(C)C)C(=O)N[C@@H](Cc1c[nH]cn1)C(=O)N[C@@H](CCC(=O)O)C(=O)N[C@@H](CC(C)C)C(=O)N[C@@H](CO)C(=O)N[C@H](C(=O)N[C@@H](Cc1ccc(O)cc1)C(=O)N1CCC[C@H]1C(=O)N[C@@H](CCCNC(=N)N)C(=O)N[C@H](C(=O)N[C@@H](CCC(=O)O)C(=O)N[C@H](C(=O)NCC(=O)N[C@@H](CO)C(=O)NCC(=O)N[C@@H](CO)C(=O)N[C@@H](Cc1ccc(O)cc1)C(N)=O)[C@@H](C)O)[C@@H](C)O)[C@@H](C)O

hCTR funct. EC50 (pM) [1]: 6 pM | hAmylin-R funct. EC50 (pM) [2]: 12 pM
B3: [N-terminal(C18 diacid-gGlu), des1, 5V, 9V, 10V, 20V, 30S, 31G]mimylin (peptide)
peptide: {C18 diacid-γGlu}-ASEVSTAVVGRLSAELHEVATLPRTETGSGSP-NH2
SMILES: CC(C)C[C@H](NC(=O)[C@H](CCCNC(=N)N)NC(=O)CNC(=O)[C@@H](NC(=O)[C@@H](NC(=O)[C@H](C)NC(=O)[C@@H](NC(=O)[C@H](CO)NC(=O)[C@@H](NC(=O)[C@H](CCC(=O)O)NC(=O)[C@H](CO)NC(=O)[C@H](C)NC(=O)CC[C@H](NC(=O)CCCCCCCCCCCCCCCCC(=O)O)C(=O)O)C(C)C)[C@@H](C)O)C(C)C)C(C)C)C(=O)N[C@@H](CO)C(=O)N[C@@H](C)C(=O)N[C@@H](CCC(=O)O)C(=O)N[C@@H](CC(C)C)C(=O)N[C@@H](Cc1c[nH]cn1)C(=O)N[C@@H](CCC(=O)O)C(=O)N[C@H](C(=O)N[C@@H](C)C(=O)N[C@H](C(=O)N[C@@H](CC(C)C)C(=O)N1CCC[C@H]1C(=O)N[C@@H](CCCNC(=N)N)C(=O)N[C@H](C(=O)N[C@@H](CCC(=O)O)C(=O)N[C@H](C(=O)NCC(=O)N[C@@H](CO)C(=O)NCC(=O)N[C@@H](CO)C(=O)N1CCC[C@H]1C(N)=O)[C@@H](C)O)[C@@H](C)O)[C@@H](C)O)C(C)C

hCTR funct. EC50 (pM) [1]: 70 pM | hAmylin-R funct. EC50 (pM) [2]: 67 pM
B4: [N-terminal(C20 diacid-gGlu), des1, 4G, 9V, 23Y, 30S, 31G, 32T, 33Y]mimylin (peptide)
peptide: {C20 diacid-γGlu}-ASGLSTAVLGRLSAELHELATYPRTETGSGTY-NH2
SMILES: CC(C)C[C@H](NC(=O)CNC(=O)[C@H](CO)NC(=O)[C@H](C)NC(=O)CC[C@H](NC(=O)CCCCCCCCCCCCCCCCCCC(=O)O)C(=O)O)C(=O)N[C@@H](CO)C(=O)N[C@H](C(=O)N[C@@H](C)C(=O)N[C@H](C(=O)N[C@@H](CC(C)C)C(=O)NCC(=O)N[C@@H](CCCNC(=N)N)C(=O)N[C@@H](CC(C)C)C(=O)N[C@@H](CO)C(=O)N[C@@H](C)C(=O)N[C@@H](CCC(=O)O)C(=O)N[C@@H](CC(C)C)C(=O)N[C@@H](Cc1c[nH]cn1)C(=O)N[C@@H](CCC(=O)O)C(=O)N[C@@H](CC(C)C)C(=O)N[C@@H](C)C(=O)N[C@H](C(=O)N[C@@H](Cc1ccc(O)cc1)C(=O)N1CCC[C@H]1C(=O)N[C@@H](CCCNC(=N)N)C(=O)N[C@H](C(=O)N[C@@H](CCC(=O)O)C(=O)N[C@H](C(=O)NCC(=O)N[C@@H](CO)C(=O)NCC(=O)N[C@H](C(=O)N[C@@H](Cc1ccc(O)cc1)C(N)=O)[C@@H](C)O)[C@@H](C)O)[C@@H](C)O)[C@@H](C)O)C(C)C)[C@@H](C)O

hCTR funct. EC50 (pM) [1]: 16 pM | hAmylin-R funct. EC50 (pM) [2]: 17 pM
B5: [N-terminal(C20 diacid-gGlu), des1, 9S, 21S, 23Y, 30S, 31G, 33Y]mimylin (peptide)
peptide: {C20 diacid-γGlu}-ASELSTASLGRLSAELHELSTYPRTETGSGSY-NH2
SMILES: CC(C)C[C@H](NC(=O)[C@H](CO)NC(=O)[C@H](C)NC(=O)[C@@H](NC(=O)[C@H](CO)NC(=O)[C@H](CC(C)C)NC(=O)[C@H](CCC(=O)O)NC(=O)[C@H](CO)NC(=O)[C@H](C)NC(=O)CC[C@H](NC(=O)CCCCCCCCCCCCCCCCCCC(=O)O)C(=O)O)[C@@H](C)O)C(=O)NCC(=O)N[C@@H](CCCNC(=N)N)C(=O)N[C@@H](CC(C)C)C(=O)N[C@@H](CO)C(=O)N[C@@H](C)C(=O)N[C@@H](CCC(=O)O)C(=O)N[C@@H](CC(C)C)C(=O)N[C@@H](Cc1c[nH]cn1)C(=O)N[C@@H](CCC(=O)O)C(=O)N[C@@H](CC(C)C)C(=O)N[C@@H](CO)C(=O)N[C@H](C(=O)N[C@@H](Cc1ccc(O)cc1)C(=O)N1CCC[C@H]1C(=O)N[C@@H](CCCNC(=N)N)C(=O)N[C@H](C(=O)N[C@@H](CCC(=O)O)C(=O)N[C@H](C(=O)NCC(=O)N[C@@H](CO)C(=O)NCC(=O)N[C@@H](CO)C(=O)N[C@@H](Cc1ccc(O)cc1)C(N)=O)[C@@H](C)O)[C@@H](C)O)[C@@H](C)O

hCTR funct. EC50 (pM) [1]: 5 pM | hAmylin-R funct. EC50 (pM) [2]: 16 pM
B6: [N-terminal(C18 diacid), 9I]mimylin (peptide)
peptide: {C18 diacid}-EASELSTAILGRLSAELHELATLPRTETGPESP-NH2
SMILES: CC[C@H](C)[C@H](NC(=O)[C@H](C)NC(=O)[C@@H](NC(=O)[C@H](CO)NC(=O)[C@H](CC(C)C)NC(=O)[C@H](CCC(=O)O)NC(=O)[C@H](CO)NC(=O)[C@H](C)NC(=O)[C@H](CCC(=O)O)NC(=O)CCCCCCCCCCCCCCCCC(=O)O)[C@@H](C)O)C(=O)N[C@@H](CC(C)C)C(=O)NCC(=O)N[C@@H](CCCNC(=N)N)C(=O)N[C@@H](CC(C)C)C(=O)N[C@@H](CO)C(=O)N[C@@H](C)C(=O)N[C@@H](CCC(=O)O)C(=O)N[C@@H](CC(C)C)C(=O)N[C@@H](Cc1c[nH]cn1)C(=O)N[C@@H](CCC(=O)O)C(=O)N[C@@H](CC(C)C)C(=O)N[C@@H](C)C(=O)N[C@H](C(=O)N[C@@H](CC(C)C)C(=O)N1CCC[C@H]1C(=O)N[C@@H](CCCNC(=N)N)C(=O)N[C@H](C(=O)N[C@@H](CCC(=O)O)C(=O)N[C@H](C(=O)NCC(=O)N1CCC[C@H]1C(=O)N[C@@H](CCC(=O)O)C(=O)N[C@@H](CO)C(=O)N1CCC[C@H]1C(N)=O)[C@@H](C)O)[C@@H](C)O)[C@@H](C)O

hCTR funct. EC50 (pM) [1]: 37 pM | hAmylin-R funct. EC50 (pM) [2]: 51 pM
B7: [N-terminal(C20 diacid-gGlu), des1, 12K, 23Y, 25K, 30S, 31G, 33Y]mimylin (peptide)
peptide: {C20 diacid-γGlu}-ASELSTAALGKLSAELHELATYPKTETGSGSY-NH2
SMILES: CC(C)C[C@H](NC(=O)[C@H](C)NC(=O)[C@H](C)NC(=O)[C@@H](NC(=O)[C@H](CO)NC(=O)[C@H](CC(C)C)NC(=O)[C@H](CCC(=O)O)NC(=O)[C@H](CO)NC(=O)[C@H](C)NC(=O)CC[C@H](NC(=O)CCCCCCCCCCCCCCCCCCC(=O)O)C(=O)O)[C@@H](C)O)C(=O)NCC(=O)N[C@@H](CCCCN)C(=O)N[C@@H](CC(C)C)C(=O)N[C@@H](CO)C(=O)N[C@@H](C)C(=O)N[C@@H](CCC(=O)O)C(=O)N[C@@H](CC(C)C)C(=O)N[C@@H](Cc1c[nH]cn1)C(=O)N[C@@H](CCC(=O)O)C(=O)N[C@@H](CC(C)C)C(=O)N[C@@H](C)C(=O)N[C@H](C(=O)N[C@@H](Cc1ccc(O)cc1)C(=O)N1CCC[C@H]1C(=O)N[C@@H](CCCCN)C(=O)N[C@H](C(=O)N[C@@H](CCC(=O)O)C(=O)N[C@H](C(=O)NCC(=O)N[C@@H](CO)C(=O)NCC(=O)N[C@@H](CO)C(=O)N[C@@H](Cc1ccc(O)cc1)C(N)=O)[C@@H](C)O)[C@@H](C)O)[C@@H](C)O

From US20160272683A1 (Novo Nordisk, published 2016)
